Usually stoichiometry N stands for a count of units in the complex or per binding partner.

Holding throughout (assay): SEC; BV-bound protein on a Superdex 200 10/300 GL column, absorbance at 280, 380 and 630 nm, calibrated with a standard protein mixture; self-association (monomer or tetramer)
Test [1] addresses Sandercyanin F55A variant (Stizostedion vitreum (Canadian walleye)).
For test [2], the target named is Sandercyanin F106A variant (Stizostedion vitreum (Canadian walleye)).
Test [3] concerns the target Sandercyanin H108A variant (Stizostedion vitreum (Canadian walleye)).
Test [4] has as its target Sandercyanin Y142A variant (Stizostedion vitreum (Canadian walleye)).
Test [5] deals with wild-type Sandercyanin (SFP) (Stizostedion vitreum (Canadian walleye)).

Turning to “Sandercyanin F55A variant (natural protein)”, the stoichiometry N in test [1] amounted to 4.

With “Sandercyanin F106A variant (natural protein)”, the stoichiometry N in test [2] stood at 4.

Turning to “Sandercyanin H108A variant (natural protein)”, the stoichiometry N in test [3] stood at 4. Consider “Sandercyanin Y142A variant (natural protein)”, for which, in test [4], the stoichiometry N stood at 4. “wild-type Sandercyanin (SFP) (natural protein)”: the stoichiometry N in test [5] was found to be 4.

These data come from PMC9277520.
